According to doi:10.1101/2021.04.22.440356:

Target: human ubiquitin (15N-ubiquitin of the peptide titration) (human) (UniProt P0CG48)
Assay: NMR titration

short peptide from the YUH1 N-terminus (1-10), sequence (P35127 whole entry, looked up, tested part not stated): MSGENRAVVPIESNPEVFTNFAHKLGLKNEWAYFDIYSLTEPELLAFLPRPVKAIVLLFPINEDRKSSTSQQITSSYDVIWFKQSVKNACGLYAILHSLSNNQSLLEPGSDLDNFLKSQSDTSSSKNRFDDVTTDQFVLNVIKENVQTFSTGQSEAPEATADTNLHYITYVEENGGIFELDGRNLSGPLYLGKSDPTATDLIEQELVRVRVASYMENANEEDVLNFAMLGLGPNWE

## short peptide from the YUH1 N-terminus (1-10) (from UniProt P35127 1-10)
  Kd: 180 µM
